Source: patent US20040058457 (published 2004)

Legend:
[1] = target: T1, GST-Zif268 (PED107) (mouse, UniProt P08046 SEQ:1-90); assay: EMSA; protein bound to Au-GSH nanoparticles; DNA co-migrated with Au particles; 1% agarose, 1xTAE, RT 10 min
[2] = target: T1, GST-Zif268 (PED107); assay: EMSA; 1% agarose gel, RT 10 min, 0-4 uL of 1 mg/mL protein; shorter DNA trapped in well with increasing protein

| Binder | binding result [1] | binding result [2] |
| --- | --- | --- |
| NZ-23 (as added to Au-GSH/GST-Zif268 assay) (dsDNA) DNA 1: AAGGGTTCAGCGTGGGCG DNA 2: CGCCCACGCTGAACCCTT | binds | – |
| NZ-23 420 bp fragment with 23 tandem Zif268 sites separated by NRE sites (dsDNA) DNA 1: AAGGGTTCAGCGTGGGCG DNA 2: CGCCCACGCTGAACCCTT | – | binds |
